Reference: article PMC4204861

Target: rEag1-Δeag (rat)

- slow phase of inactivation of rEag1-Δeag (10- or 40-sec test pulses), two-electrode voltage clamp in Xenopus oocytes, co-expression (% reduction in current amplitude): 60
Substance: rEag1 eag domain fragment (domain or fragment)
